In the data set the target is GST-FoxO1-DBD (Mus musculus, UniProt Q9R1E0 157-268). Put plainly: EMSA; 10 mM HEPES pH 7.8, 50 mM KCl, 1 mM EDTA, 5 mM MgCl2, 10% glycerol, 5 mM DTT, 0.4 ug/mL poly(dI-dC), 30 min on ice; 4.6% PAGE in TBE. As to conditions: protein: recombinant; tags: N-terminal GST (pGEX-4T1); label: 32P (alpha-32P dCTP, Klenow fill-in); blunt after fill-in of 5' overhangs.
Sequence of GST-FoxO1-DBD (Q9R1E0 157-268): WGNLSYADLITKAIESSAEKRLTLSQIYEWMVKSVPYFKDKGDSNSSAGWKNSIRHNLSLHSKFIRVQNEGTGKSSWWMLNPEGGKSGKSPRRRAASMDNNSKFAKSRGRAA

B1: Ass1 FoxO BS1 mut (dsDNA)
DNA 1: GTGTACCCAAGGACACATCTACTTTCTTTCTGATTTTGGATCCTTTGTTGGGTG
DNA 2: CACCCAACAAAGGATCCAAAATCAGAAAGAAAGTAGATGTGTCCTTGGGTACAC
As to B1, the binding result is listed as “no binding”.

The record behind these values is paper PMC13562413, “FoxO transcription factors coordinate the urea cycle and gluconeogenesis by controlling Ass1”.
